Experimental findings from publication PMC10404244, “Control of motor landing and processivity by the CAP-Gly domain in the KIF13B tail” (Nature Communications, 2023) are described below.

Data set [1] concerns the molecule itself. Nature of the data set: two-colour single-molecule TIRF microscopy; sfGFP- and mScarlet (I)-tagged KIF13BK414A co-expressed and purified together (molar ratio ~1:5 mScarlet (I): sfGFP), seen on immobilised tyrosinated and CPA-treated detyrosinated microtubules; 2 mM ATP or 2 mM ADP.
In data set [2] the target is T1, tyrosinated microtubules polymerized from recombinant human α1A/βIII tubulin (human, UniProt Q71U36 1-451; Q13509 1-450).
T1 construct: human alpha-tubulin isotype α1A, fully tyrosinated; human beta-tubulin isotype βIII; Plasmids (pFAST-Dual) were gifts from A. Roll-Mecak; also called recombinant human tubulin (fully tyrosinated); not shown: His tag (from the HisTrap purification)
Nature of the data set: TIRF microscopy microtubule-binding assay (standard deviation map); differentially labelled tyrosinated and detyrosinated taxol microtubules held by biotin-streptavidin in the same chamber, sfGFP motors in solution, 2 mM ATP, HP assay buffer pH 7.0. The note with it: both partners purified.

Data set [3] deals with the molecule itself. Nature of the data set: mass photometry; lower concentration(s) of the construct (KIF13B^Δtail: the lower of two; KIF13B^CG: low and intermediate), HP buffer pH 7.0, room temperature; monomer to dimer.
Data set [4] deals with T2, tyrosinated microtubules polymerized from purified porcine brain tubulin (porcine, UniProt P02550 1-451); Q767L7 1-444, part of the tubulin labelled with biotin NHS ester and Dylight-405 (or Alexa647) NHS ester (chain and residues not told) | part of the tubulin labelled with biotin NHS ester and Dylight-405 (or …).
T2 construct: alpha-tubulin of porcine brain, mixture of isotypes and PTMs, approximately 50% tyrosinated; beta-tubulin of porcine brain, mixture of isotypes and PTMs; A polymer of alpha/beta-tubulin dimers, held on the coverslip through biotin-streptavidin; also called WT (tyrosinated) microtubules; tyrosinated MTs; source: purified from porcine brain (high-molarity PIPES procedure), polymerized with GTP, …
Briefly: TIRF microscopy microtubule-binding assay; KIF5B constructs on tyrosinated and detyrosinated microtubules in the presence of ADP (Supplementary Fig. 5G); read-out not told.

T1 sequence (Q71U36 whole entry, chain 1 of 2): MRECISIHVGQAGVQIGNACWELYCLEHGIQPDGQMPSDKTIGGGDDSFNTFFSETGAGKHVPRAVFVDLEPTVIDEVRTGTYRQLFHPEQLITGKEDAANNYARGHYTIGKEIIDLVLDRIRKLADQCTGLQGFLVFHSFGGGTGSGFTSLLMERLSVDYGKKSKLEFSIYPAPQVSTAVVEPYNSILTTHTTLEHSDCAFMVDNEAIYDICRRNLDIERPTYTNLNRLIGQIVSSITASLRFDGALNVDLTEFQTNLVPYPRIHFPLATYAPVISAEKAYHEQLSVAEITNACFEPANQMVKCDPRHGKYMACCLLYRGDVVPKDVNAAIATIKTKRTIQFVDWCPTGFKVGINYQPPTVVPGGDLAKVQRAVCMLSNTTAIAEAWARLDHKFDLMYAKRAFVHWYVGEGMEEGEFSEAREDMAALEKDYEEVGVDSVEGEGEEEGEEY
T1 sequence (Q13509 whole entry, chain 2 of 2): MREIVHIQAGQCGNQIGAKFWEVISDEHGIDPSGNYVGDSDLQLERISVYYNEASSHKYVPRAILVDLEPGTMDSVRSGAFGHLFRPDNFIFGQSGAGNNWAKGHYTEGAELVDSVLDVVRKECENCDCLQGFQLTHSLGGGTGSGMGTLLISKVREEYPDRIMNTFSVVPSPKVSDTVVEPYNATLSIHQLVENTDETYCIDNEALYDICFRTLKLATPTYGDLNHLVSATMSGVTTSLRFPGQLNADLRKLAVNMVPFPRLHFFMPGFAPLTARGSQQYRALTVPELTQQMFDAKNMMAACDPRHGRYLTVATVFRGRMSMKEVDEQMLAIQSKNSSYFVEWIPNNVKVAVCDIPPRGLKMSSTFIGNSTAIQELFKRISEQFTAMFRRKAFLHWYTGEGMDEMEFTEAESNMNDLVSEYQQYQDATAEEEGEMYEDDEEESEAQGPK

B1: KIF13B K414A, full-length human KIF13B with the point mutation K414A, C-terminal sfGFP-StrepII (natural protein, UniProt Q9NQT8 1-1826, looked up)
chain: MGDSKVKVAVRIRPMNRRETDLHTKCVVDVDANKVILNPVNTNLSKGDARGQPKVFAYDHCFWSMDESVKEKYAGQDIVFKCLGENILQNAFDGYNACIFAYGQTGSGKSYTMMGTADQPGLIPRLCSGLFERTQKEENEEQSFKVEVSYMEIYNEKVRDLLDPKGSRQTLKVREHSVLGPYVDGLSKLAVTSYKDIESLMSEGNKSRTVAATNMNEESSRSHAVFKITLTHTLYDVKSGTSGEKVGKLSLVDLAGSERATKTGAAGDRLKEGSNINKSLTTLGLVISALADQSAGKNKNKFVPYRDSVLTWLLKDSLGGNSKTAMVATVSPAADNYDETLSTLRYADRAKHIVNHAVVNEDPNARIIRDLREEVEKLREQLTKAEAMKSPELKDRLEESEKLIQEMTVTWEEALRKTEEIAQERQKQLESLGISLQSSGIKVGDDKCFLVNLNADPALNELLVYYLKEHTLIGSANSQDIQLCGMGILPEHCIIDITSEGQVMLTPQKNTRTFVNGSSVSSPIQLHHGDRILWGNNHFFRLNLPKKKKKAEREDEDQDPSMKNENSSEQLDVDGDSSSEVSSEVNFNYEYAQMEVTMKALGSNDPMQSILNSLEQQHEEEKRSALERQRLMYEHELEQLRRRLSPEKQNCRSMDRFSFHSPSAQQRLRQWAEEREATLNNSLMRLREQIVKANLLVREANYIAEELDKRTEYKVTLQIPASSLDANRKRGSLLSEPAIQVRRKGKGKQIWSLEKLDNRLLDMRDLYQEWKECEEDNPVIRSYFKRADPFYDEQENHSLIGVANVFLESLFYDVKLQYAVPIINQKGEVAGRLHVEVMRLSGDVGERIAGGDEVAEVSFEKETQENKLVCMVKILQATGLPQHLSHFVFCKYSFWDQQEPVIVAPEVDTSSSSVSKEPHCMVVFDHCNEFSVNITEDFIEHLSEGALAIEVYGHKINDPRKNPALWDLGIIQAKTRSLRDRWSEVTRKLEFWVQILEQNENGEYCPVEVISAKDVPTGGIFQLRQGQSRRVQVEVKSVQESGTLPLMEECILSVGIGCVKVRPLRAPRTHETFHEEEEDMDSYQDRDLERLRRKWLNALTKRQEYLDQQLQKLVSKRDKTEDDADREAQLLEMRLTLTEERNAVMVPSAGSGIPGAPAEWTPVPGMETHIPVIFLDLNADDFSSQDNLDDPEAGGWDATLTGEEEEEFFELQIVKQHDGEVKAEASWDSAVHGCPQLSRGTPVDERLFLIVRVTVQLSHPADMQLVLRKRICVNVHGRQGFAQSLLKKMSHRSSIPGCGVTFEIVSNIPEDAQGVEEREALARMAANVENPASADSEAYIEKYLRSVLAVENLLTLDRLRQEVAVKEQLTGKGKLSRRSISSPNVNRLSGSRQDLIPSYSLGSNKGRWESQQDVSQTTVSRGIAPAPALSVSPQNNHSPDPGLSNLAASYLNPVKSFVPQMPKLLKSLFPVRDEKRGKRPSPLAHQPVPRIMVQSASPDIRVTRMEEAQPEMGPDVLVQTMGAPALKICDKPAKVPSPPPVIAVTAVTPAPEAQDGPPSPLSEASSGYFSHSVSTATLSDALGPGLDAAAPPGSMPTAPEAEPEAPISHPPPPTAVPAEEPPGPQQLVSPGRERPDLEAPAPGSPFRVRRVRASELRSFSRMLAGDPGCSPGAEGNAPAPGAGGQALASDSEEADEVPEWLREGEFVTVGAHKTGVVRYVGPADFQEGTWVGVELDLPSGKNDGSIGGKQYFRCNPGYGLLVRPSRVRRATGPVRRRSTGLRLGAPEARRSATLSGSATNLASLTAALAKADRSHKNPENRKSWAS
notes: kinesin KIF13B, human, full length, point mutant K414A; molar ratio about 1:5 (mScarlet (I): sfGFP); also called KIF13BK414A-sfGFP; HsKIF13BK414A-sfGFP-StrepII; source: Sf9, purified (Strep-Tactin XT, gel filtration); for the two-colour assay Sf9 co-infected with the sfGFP-StrepII and the mScarlet-StrepII viruses; not shown: sfGFP, C-terminal, kept
In the case of B1, the binding result in data set [1] is listed as “binds”.

B2: human KIF13B tail-truncated (a.a. 1–679), C-terminal sfGFP-StrepII (domain or fragment, UniProt Q9NQT8 1-679, looked up)
chain: MGDSKVKVAVRIRPMNRRETDLHTKCVVDVDANKVILNPVNTNLSKGDARGQPKVFAYDHCFWSMDESVKEKYAGQDIVFKCLGENILQNAFDGYNACIFAYGQTGSGKSYTMMGTADQPGLIPRLCSGLFERTQKEENEEQSFKVEVSYMEIYNEKVRDLLDPKGSRQTLKVREHSVLGPYVDGLSKLAVTSYKDIESLMSEGNKSRTVAATNMNEESSRSHAVFKITLTHTLYDVKSGTSGEKVGKLSLVDLAGSERATKTGAAGDRLKEGSNINKSLTTLGLVISALADQSAGKNKNKFVPYRDSVLTWLLKDSLGGNSKTAMVATVSPAADNYDETLSTLRYADRAKHIVNHAVVNEDPNARIIRDLREEVEKLREQLTKAEAMKSPELKDRLEESEKLIQEMTVTWEEKLRKTEEIAQERQKQLESLGISLQSSGIKVGDDKCFLVNLNADPALNELLVYYLKEHTLIGSANSQDIQLCGMGILPEHCIIDITSEGQVMLTPQKNTRTFVNGSSVSSPIQLHHGDRILWGNNHFFRLNLPKKKKKAEREDEDQDPSMKNENSSEQLDVDGDSSSEVSSEVNFNYEYAQMEVTMKALGSNDPMQSILNSLEQQHEEEKRSALERQRLMYEHELEQLRRRLSPEKQNCRSMDRFSFHSPSAQQRLRQWAEEREATL
notes: KIF13B, human, a.a; 1–679; truncated after the predicted second coiled-coil, within the MBS domain; also called KIF13B^Δtail; KIF13^Δtail; source: Sf9 insect cells (baculovirus), purified (Strep-Tactin XT, gel filtration); not shown: sfGFP, C-terminal, kept
B2: the binding result in data set [2] and in data set [3] was “binds” each time.

B3: chimeric KIF5B motor domain and stalk appended with the CAP-Gly domain from KIF13B (other)
chain: MADLAECNIKVMCRFRPLNESEVNRGDKYIAKFQGEDTVVIASKPYAFDRVFQSSTSQEQVYNDCAKKIVKDVLEGYNGTIFAYGQTSSGKTHTMEGKLHDPEGMGIIPRIVQDIFNYIYSMDENLEFHIKVSYFEIYLDKIRDLLDVSKTNLSVHEDKNRVPYVKGCTERFVCSPDEVMDTIDEGKSNRHVAVTNMNEHSSRSHSIFLINVKQENTQTEQKLSGKLYLVDLAGSEKVSKTGAEGAVLDEAKNINKSLSALGNVISALAEGSTYVPYRDSKMTRILQDSLGGNCRTTIVICCSPSSYNESETKSTLLFGQRAKTIKNTVCVNVELTAEQWKKKYEKEKEKNKILRNTIQWLENELNRWRNGETVPIDEQFDKEKANLEAFTVDKDITLTNDKPATAIGVIGNFTDAERRKCEEEIAKLYKQLDDKDEEINQQSQLVEKLKTQMLDQEELLASTRRDQDNMQAELNRLQAENDASKEEVKEVLQALEELAVNYDQKSQEVEDKTKEYELLSDELNQKSATLASIDAELQKLKEMTNHQKKRAAEMMASLLKDLAEIGIAVGNNDVKQPEGTGMIDEEFTVARLYISKMKSEVKTMVKRCKQLESTQTESNKKMEENEKELAACQLRISQHEAKIKSLTEYLQNVEQKKRQLEESVDALSEELVQLRAQEKVHEMEKEHLNKVQTANEVKQAVEQQIQSHRETHQKQISSLRDEVEAKAKLITDLQDQNQKMMLEQERLRVEHEKLKATDQEKSRKLHELTVMQDRREQARQDLKGLEETVAKELQTLHNLRKLFVQDLATRVKKSAEIDSDDTGGSAAQKQKISFLENNLEQLTKVHKQLVRDNADLRCELPKLEKRLRATAERVKALESALKEAKENASRDRKRYQQEVDRIKEAVRSKNMAQALASDSEEADEVPEWLREGEFVTVGAHKTGVVRYVGPADFQEGTWVGVELDLPSGKNDGSIGGKQYFRCNPGYGLLVRPSRVRRATGPVRRRSTGLRLGAPEARRSATLSGSATNLASLTAALAKADRSHKNPENRKSWAS
As for B3, the “fold binding, tyrosinated over detyrosinated microtubules (ADP)” value in data set [4] is about 16 fold.
